Substitutions are numbered along the chain they refer to.
T1: XTR1 DBD (Trichoderma reesei QM9414) (UniProt G0RH11)
T1 sequence: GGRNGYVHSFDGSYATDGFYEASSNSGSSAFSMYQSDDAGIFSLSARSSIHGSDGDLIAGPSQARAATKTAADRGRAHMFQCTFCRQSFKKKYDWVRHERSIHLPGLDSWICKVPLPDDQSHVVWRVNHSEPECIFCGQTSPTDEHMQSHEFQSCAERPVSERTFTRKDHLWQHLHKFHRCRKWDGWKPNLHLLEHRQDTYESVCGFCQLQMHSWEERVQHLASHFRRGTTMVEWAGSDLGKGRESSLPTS

T2: XYR1 DBD (Trichoderma reesei) (UniProt G0RLE8)
T2 sequence: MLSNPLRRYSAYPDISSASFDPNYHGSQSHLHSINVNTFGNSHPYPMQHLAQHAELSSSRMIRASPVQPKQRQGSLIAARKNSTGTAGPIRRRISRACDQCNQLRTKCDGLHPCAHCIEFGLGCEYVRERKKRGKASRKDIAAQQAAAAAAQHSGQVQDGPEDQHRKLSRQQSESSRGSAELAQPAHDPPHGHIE

T3: XTR1 DBD (Trichoderma reesei QM9414, UniProt G0RH11 285-535)
T3 sequence: T1 sequence

B1: Pxyn1 (-321 to -217) GG2-3 to AA (dsDNA)
DNA 1: AACTAGGACCGGCTTGTGTCGATATTGCGGGTGGCGTTCAATCTATTCCGGCACTCCTATGCCGTTTGATCCGATACCTAAAGGGCGTGCTTTAGGCAAAATGCC
DNA 2: GGCATTTTGCCTAAAGCACGCCCTTTAGGTATCGGATCAAACGGCATAGGAGTGCCGGAATAGATTGAACGCCACCCGCAATATCGACACAAGCCGGTCCTAGTT
B2: Pxyn1 (-321 to -217) GGG5-7 to AAA (dsDNA)
DNA 1: B1 DNA 1 with A80G, A81G, G83A, G84A, G85A
DNA 2: B1 DNA 2 with C21T, C22T, C23T, T25C, T26C
B3: Pxyn1 (-321 to -217) CGTGC8-12 to TTGTT (dsDNA)
DNA 1: B1 DNA 1 with A80G, A81G, C86T, G87T, T88G, G89T, C90T
DNA 2: B1 DNA 2 with G16A, C17A, A18C, C19A, G20A, T25C, T26C
B4: Pxyn1 (-321 to -217) 3' TTT to AAA (dsDNA)
DNA 1: B1 DNA 1 with A80G, A81G, T91G, T92G, T93G
DNA 2: B1 DNA 2 with A13C, A14C, A15C, T25C, T26C

Legend:
[1] = target: T1, XTR1 DBD (Trichoderma reesei QM9414); assay: EMSA; conditions: EMSA: 10 mM Tris pH 7.5, 50 mM KCl, 1 mM DTT, 150 ng DNA, 20 C 30 min, 6% native PAGE at 4 C in 0.5x TBE, EtBr; footprinting: 180 ng DNA, 25 C 30 min
[2] = target: T2, XYR1 DBD (Trichoderma reesei); assay: EMSA; conditions: EMSA: 10 mM Tris pH 7.5, 50 mM KCl, 1 mM DTT, 150 ng DNA, 20 C 30 min, 6% native PAGE at 4 C in 0.5x TBE, EtBr; footprinting: 180 ng DNA, 25 C 30 min
XTR1 DBD [3] = target: T3, XTR1 DBD; assay: EMSA; EMSA: 10 mM Tris pH 7.5, 50 mM KCl, 1 mM DTT, 150 ng DNA, 20 C 30 min, 6% native PAGE at 4 C in 0.5x TBE, EtBr; footprinting: 180 ng DNA, 25 C 30 min; conditions: protein: recombinant; tags: His tag (pET22b NdeI/XhoI, Ni-NTA); label: none (EtBr stain)
XTR1 DBD [4] = target: T3, XTR1 DBD; assay: EMSA; binding increased vs wild type; EMSA: 10 mM Tris pH 7.5, 50 mM KCl, 1 mM DTT, 150 ng DNA, 20 C 30 min, 6% native PAGE at 4 C in 0.5x TBE, EtBr; footprinting: 180 ng DNA, 25 C 30 min; conditions: protein: recombinant; tags: His tag (pET22b NdeI/XhoI, Ni-NTA); label: none (EtBr stain)

Molecule	binding [1]	binding result (XTR1 DBD [3])	further results
AAGCTTCGAGGATACTGTACGAGCCGCTTTCAACCTCACTTGATGATGTCTGAGTTTCATCAAGAGAATTGAAGTCAAAGCTCAAATCATGATGTGAAGAGGTTTTGAATGTGGAAGAATTCTGCATA (double strand) [Pxyn1 (-217 to -91)]	no binding		
AACTAGGACCGGCTTGTGTCGATATTGCGGGTGGCGTTCAATCTATTCCGGCACTCCTATGCCGTTTGATCCGATACCTGGAGGGCGTGCTTTAGGCAAAATGCC (double strand) [Pxyn1 (-321 to -217)]	binds		binding [2]: binds
AACTAGGACCGGCTTGTGTCGATATTGCGGGTGGCGTTCAATCTATTCCGGCACTCCTATGCCGTTTGATCCGATACCTGGAGGGCGTGCTTTAGGCAAAATGCCAAGCTTCGAGGATACTGTACGAGCCGCTTTCAACCTCACTTGATGATGTCTGAGTTTCATCAAGAGAATTGAAGTCAAAGCTCAAATCATGATGTGAAGAGGTTTTGAATGTGGAAGAATTCTGCATA (double strand) [Pxyn1 (-321 to -91)]	binds		
B1		binds	
B2		binds	
B3		no binding	
B4			binding result (XTR1 DBD [4]): binds
